Measured values from patent publication US20240239878A1 (SHANGHAI QILU PHARMACEUTICAL RESEARCH AND DEVELOPMENT CENTRE, published 2024).
Like-named read-outs stand apart in the source and are kept apart here.

T1: human DLL3 on SHP-77 cells (human, UniProt Q9NYJ7 27-618)
T1 construct: also called DLL3-expressing cells (SHP-77)
T1 sequence: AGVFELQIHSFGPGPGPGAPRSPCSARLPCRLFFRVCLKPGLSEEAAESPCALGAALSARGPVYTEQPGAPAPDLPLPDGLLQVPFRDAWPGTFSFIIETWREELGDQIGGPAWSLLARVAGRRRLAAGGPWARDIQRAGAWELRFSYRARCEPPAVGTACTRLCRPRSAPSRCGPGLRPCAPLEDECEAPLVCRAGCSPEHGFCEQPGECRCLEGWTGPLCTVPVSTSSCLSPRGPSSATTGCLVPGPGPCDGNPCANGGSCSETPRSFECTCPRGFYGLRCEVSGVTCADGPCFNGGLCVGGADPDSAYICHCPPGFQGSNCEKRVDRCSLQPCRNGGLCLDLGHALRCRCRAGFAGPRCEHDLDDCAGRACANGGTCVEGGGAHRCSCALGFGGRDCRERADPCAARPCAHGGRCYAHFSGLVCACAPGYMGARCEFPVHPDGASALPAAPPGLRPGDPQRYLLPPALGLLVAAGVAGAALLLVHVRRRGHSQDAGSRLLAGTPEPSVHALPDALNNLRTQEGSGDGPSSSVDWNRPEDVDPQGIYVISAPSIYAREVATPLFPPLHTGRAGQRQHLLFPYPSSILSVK

T2: human DLL3 antigen protein (Kactus Biosystems, Cat. No. DLL-HM103) (human, UniProt Q9NYJ7 27-492)
T2 sequence: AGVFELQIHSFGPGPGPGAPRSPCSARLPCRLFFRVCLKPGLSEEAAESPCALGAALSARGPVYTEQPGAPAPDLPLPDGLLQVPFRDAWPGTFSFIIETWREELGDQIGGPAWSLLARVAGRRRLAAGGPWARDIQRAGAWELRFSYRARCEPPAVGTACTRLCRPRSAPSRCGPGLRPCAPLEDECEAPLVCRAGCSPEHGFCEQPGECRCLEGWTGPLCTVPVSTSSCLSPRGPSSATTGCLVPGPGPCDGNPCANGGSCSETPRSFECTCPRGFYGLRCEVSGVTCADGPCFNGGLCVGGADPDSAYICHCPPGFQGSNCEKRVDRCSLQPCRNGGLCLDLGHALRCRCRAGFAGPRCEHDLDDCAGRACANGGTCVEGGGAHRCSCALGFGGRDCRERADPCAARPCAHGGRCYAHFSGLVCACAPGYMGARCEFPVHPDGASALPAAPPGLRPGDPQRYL

T3: human DLL1 (Sino Biological, Cat. No. 11635-H08H) (human, UniProt O00548 18-545)
T3 construct: also called family protein DLL1
T3 sequence: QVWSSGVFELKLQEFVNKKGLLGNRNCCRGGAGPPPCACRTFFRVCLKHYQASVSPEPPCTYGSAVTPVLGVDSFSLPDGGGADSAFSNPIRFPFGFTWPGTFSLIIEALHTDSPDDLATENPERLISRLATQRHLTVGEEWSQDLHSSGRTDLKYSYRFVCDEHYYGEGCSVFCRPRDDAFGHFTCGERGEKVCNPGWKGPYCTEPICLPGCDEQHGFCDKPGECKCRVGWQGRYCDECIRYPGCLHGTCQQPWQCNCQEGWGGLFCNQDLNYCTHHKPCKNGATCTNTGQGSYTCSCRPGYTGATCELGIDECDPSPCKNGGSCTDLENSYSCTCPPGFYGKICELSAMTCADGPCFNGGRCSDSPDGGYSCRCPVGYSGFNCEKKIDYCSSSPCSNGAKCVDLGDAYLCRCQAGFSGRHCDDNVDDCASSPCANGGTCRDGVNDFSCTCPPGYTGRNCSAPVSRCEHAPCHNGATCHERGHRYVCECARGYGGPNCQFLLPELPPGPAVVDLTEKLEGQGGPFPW


How the values were obtained:
[1] = biological target: T1, human DLL3 on SHP-77 cells; assay: flow cytometry, SHP-77 cells
[2] = biological target: T2, human DLL3 antigen protein (Kactus …); assay: affinity assay with human DLL3 antigen protein (kinetics; method not restated, Biacore as in Example 10 implied)
[3] = biological target: T4, human DLL4 (Sino Biological, Cat. No. 10171-H08H) (human, UniProt Q9NR61 27-529); assay: ELISA, plate coated with human DLL4 at 1 ug/mL, OD 450nm
T4 construct: also called family protein DLL4
Experimental: (§1) The antigenic proteins human DLL1 (SinoBiological, cat. No. 11635-H08H) or human DLL4 (SinoBiological, cat. No. 10171-H08H) were dissolved in 1×PBS at a concentration of 1 μg/mL. […] The antigen was washed three times with PBST, 300 μL/well. The antigen was blocked with 1% BSA (in PBST), 200 µL/well, and incubated at 37° C. for 1.5 hours.
(§2) Antibodies to be tested were diluted with 1% BSA (in PBS) at a starting concentration of 100 nM, downwards by a 10-fold gradient for 7 concentrations. The plates were washed three times with PBST, 300 μL/well. The diluted antibody was added to an ELISA plate at 100 μL/well and incubated at room temperature for 2 hours. The antibodies were washed three times with PBST, 300 μL/well. The secondary antibodies (goat anti-human IgG Fc for DLL4 (HRP), 1:20000 dilution; HRP goat anti-mouse IgG (H+L) for DLL1, 1:10000 dilution) were diluted with 1% BSA in PBST. The diluted secondary antibodies were added to the ELISA plate at 100 μL/well and incubated at room temperature for 1 hour. The plates were washed 6 times with PBST, 300 μL/well. The developing solution (TMA and TMB 1:1 mixed) was prepared. The developing solution was added to the plate, 100 μL/well, and incubated in the dark for 5 min. 50 μL of ELISA stop solution was added to the plate and shaken well.

[4] = biological target: T3, human DLL1 (Sino Biological, Cat. No. …); assay: ELISA, plate coated with human DLL1 at 1 ug/mL, OD 450nm
Experimental: as §1, §2

[5] = biological target: T1, human DLL3 on SHP-77 cells; assay: flow cytometry, SHP-77 cells; remark: listed apart in the source
Outline: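 Trypsinised SHP-77 cells in 1% BSA/PBS were incubated with antibody (100 nM top, 10-fold steps, 7 concentrations) for 1 h at 4° C. Bound antibody was detected with goat anti-human IgG Fc-PE for 0.5 h at 4° C and read as PE mean fluorescence intensity. EC50 and Top MFI were derived from the curves.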

[6] = biological target: T2, human DLL3 antigen protein (Kactus …); assay: SPR (Biacore 8K), antibody captured on anti-human Fc, DLL3 in solution
Experimental: The affinity and kinetic properties of the humanized anti-DLL3 antibody to human DLL3 were analyzed using a Biacore 8K instrument. CM5 chips were activated with EDC and NHS, followed by immobilization of anti-human Fc murine mAb and blocked with ethanolamine.
Human DLL3 was diluted two-fold serially to serial concentrations (100 nM-0.39 nM) and associated for 90 s and dissociated for 600 s at a flow rate of 50 μL/min.
After completion of each round of the experiment, the captured antibody was removed together with the antigen by washing with a 3M MgCl₂ solution at a flow rate of 30 μL/min for 30 s to complete the regeneration of the chip. The raw data were analyzed using Biacore Insight Evaluation Software (3.0.12.15655) software and fitted with a (1:1) Langmuir model with.

T4 sequence (Q9NR61 27-529 limits assumed): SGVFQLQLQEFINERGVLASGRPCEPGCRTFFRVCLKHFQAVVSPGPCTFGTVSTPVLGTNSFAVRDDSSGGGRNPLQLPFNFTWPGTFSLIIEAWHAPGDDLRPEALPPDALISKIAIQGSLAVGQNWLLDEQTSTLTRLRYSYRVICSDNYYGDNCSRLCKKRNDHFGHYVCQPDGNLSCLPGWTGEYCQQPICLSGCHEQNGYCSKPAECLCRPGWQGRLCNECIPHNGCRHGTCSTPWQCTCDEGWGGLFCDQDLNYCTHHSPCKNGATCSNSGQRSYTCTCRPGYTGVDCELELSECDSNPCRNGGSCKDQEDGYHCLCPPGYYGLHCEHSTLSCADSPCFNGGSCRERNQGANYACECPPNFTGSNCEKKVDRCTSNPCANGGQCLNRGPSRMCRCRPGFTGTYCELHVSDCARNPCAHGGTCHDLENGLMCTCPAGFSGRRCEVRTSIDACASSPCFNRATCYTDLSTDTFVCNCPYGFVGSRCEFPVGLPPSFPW

EC50 [1] | Top MFI [1] | Kd [2] | koff [2] | kon [2] | binding result [3] | binding result [4] | EC50 [5] | Top MFI [5] | Kd [6] | koff [6] | kon [6] | Binder
0.104 nM | 1270 MFI | 0.105 nM | 0.000135 s⁻¹ | 1.29e+06 M⁻¹ s⁻¹ |  |  |  |  |  |  |  | hDLL3-3-1-NA humanized antibody variant (antibody, V domains shown) VH: EVQLVESGGGLVQPGGSLRLSCAASTYTISSGYMGWFRQAPGKEREGVAAIYIGGSTTLYADSVKGRFTISRDNSKNTLYLQMNSLRAEDTAVYYCAAQLRPNAAYHPLDGRKYNYWGQGTLVTVSS
0.055 nM | 1010 MFI | 5.02 nM | 0.00611 s⁻¹ | 1.22e+06 M⁻¹ s⁻¹ |  |  |  |  |  |  |  | hDLL3-3-1-QS humanized antibody variant (antibody, V domains shown) VH: EVQLVESGGGLVQPGGSLRLSCAASTYTISSGYMGWFRQAPGKEREGVAAIYIGGSTTLYADSVKGRFTISRDNSKNTLYLQMNSLRAEDTAVYYCAAQLRPQSAYHPLDGRKYNYWGQGTLVTVSS
 |  |  |  |  | no binding (tested: 100 nM) | no binding (tested: 100 nM) | 2.23 nM | 1610 MFI | 0.246 nM | 5.78e-05 s⁻¹ | 235000 M⁻¹ s⁻¹ | H2-45E4D7 mouse hybridoma-derived humanized anti-DLL3 antibody (antibody, V domains shown) VH: QVQLVQSGAEVKKPGASVKVSCKASGYTFTSHWITWVRQAPGQGLEWMGDIYPISGSTNNNEKFRNRVTMTRDTSTSTVYMELSSLRSEDTAVYYCAKIITVGGAYVMDYWGQGTLVTVSS VL: EIVMTQSPATLSVSPGERATLSCRASQSVRNNLHWYQQKPGQAPRLLIKYVSQSISGIPARFSGSGSGTEFTLTISSLQSEDFAVYYCQQSNSWPLTFGGGTKLEIK
